Source: patent US20240141372A1, “TRANSGENIC BANANA PLANTS HAVING INCREASED RESISTANCE TO FUSARIUM OXYSPORUM TROPICAL RACE 4 AND METHODS OF PRODUCING SAME” (Elo Life Systems, priority 2022, published 2024)

Tests used:
Foc_TR4 = assay: In vitro spore germination and mycelial growth assay; format: cell-based, Fusarium oxysporum f.sp. cubense Tropical Race 4; settings: Foc_TR4, in vitro fungal growth inhibition assay; read-out: IC50
[1] = tested on: TR4 Fusarium oxysporum f sp. cubense (Foc); assay: ARSS greenhouse assay of acclimated tissue culture banana plants; format: in vivo; settings: transgenic banana lines per payload, FIG. 15

B1: Sm-AMP-D1: Sm-AMP-D1 anti-microbial peptide, tested as purified protein in vitro (protein)
chain: MAKTVLGIHVTFLTLLFAVILLNDVMYTPVEGKICERASGTWKGICIHSNDCNNQCVKWENAGSGSCHYQFPNYMCFCYFNC
B1 showed an IC50 (Foc_TR4) of 2.2 µM and a disease necrosis [1] of 27%.
